Legend:
[1] = compared to wild type hAGT; literature; cited from earlier work
[2] = Reactivity towards N^9-modified O^6-benzylguanine derivatives (preblocking, BG-Cy3 assay); type: biochemical; details: 100 µM N^9-isobutyl-, N^9-propyl-, N^9-cyanomethyl-O^6-benzylguanine, 15 min
Procedure: FIG. 3: Reactivity of AGT mutants with N^9-modified BG derivatives. 10 µM AGTM (grey bars) or PGEG-hAGT (black bars) were preblocked with 100 µM N^9-modified BG derivatives (see list below), and subsequently labeled with 20 µM BG-Cy3. After 1 h reaction time, fluorescence intensity (FI) indicated in arbitrary units [a.u.] at 595 nm is measured. The black bold line is set at the reading for condition 1 corresponding to background fluorescence of the fluorophore not attached to protein. Values above this line indicate slow or incomplete reaction with N^9-modified BG-derivative. • 1 Fluorescence of BG-Cy3 without protein; background fluorescence. • 2 Reaction with BG-Cy3; no preblocking, positive control. • 3 Reaction with BG-Cy3, preblocked with 100 µM BG. • 4 Reaction with BG-Cy3, preblocked with 100 µM N^9-isobutyl-O^6-benzylguanine. • 5 Reaction with BG-Cy3, preblocked with 100 µM N^9-propyl-O^6-benzylguanine. • 6 Reaction with BG-Cy3, preblocked with 100 µM N^9-cyanomethyl-O^6-benzylguanine.
Reactivity of AGT towards N^9-modified O^6-benzylguanine derivatives: The experiment is based on the BG-Cy3 assay. Upon reaction of AGT with BG-Cy3, an increase of fluorescence emission intensity of Cy3 by a factor 2-3 can be observed. […]

[3] = tested on: salmon sperm DNA; assay: DNA binding as inhibition by DNA of the reaction with BG-Cy3; details: salmon sperm DNA 25 µg/ml
Procedure: (§1) The interaction with DNA is e.g. quantified by assessing the amount of copurified DNA from E. coli extracts under conditions of low salt and absence of DNase. This is compared between parallel purifications of fusion proteins (e.g. fusions to GST) of wild type (human) and mutant AGT by spectroscopic methods (ratio of absorbance at 260 and 280 nm). Alternatively the interaction of AGT with DNA is measured as the inhibition of AGT reactivity with BG-Cy3 (O^6-(4-aminomethyl-benzyl)-guanine coupled to Cy3) as substrate in the presence of DNA. This approach takes advantage of a marked increase of fluorescence of the Cy3 fluorophore upon reaction of BG-Cy3 with AGT. The reaction kinetics of AGT with a Cy3-labeled benzylguanine derivative is followed by fluorescence intensity measurements over several hours at various concentrations of salmon sperm DNA.
DNA binding: DNA binding is measured as inhibition by DNA of the reaction of AGT mutants with BG derivatives. The reaction rate of AGT mutants in a reaction mixture containing salmon sperm DNA (25 µg/ml) instead of oligonucleotide is measured with the BG-Cy3 assay. The reaction rate is determined by fitting the obtained data to a monoexponential increase to maximum.

[4] = tested on: oligonucleotide SEQ ID NO:2 (modified in position 14); assay: Reactivity against DNA-based substrates (BG-Cy3 assay with BG-modified oligonucleotide); type: biochemical; details: 0.5 µM (or more) BG-modified oligonucleotide
Procedure: The ability of wild type AGT or mutant AGT to react with alkylated DNA substrates is measured as the reaction of its inactivation by a synthetic oligonucleotide containing O^6-benzylguanine (SEQ ID NO:2, modified in position 14). Subsequently, the reactions are quenched by incubation with biotinylated O^6-alkylguanine. Samples are subjected to Western blotting and detection with streptavidin derivates to obtain kinetic constants for these substrates. Alternatively, the ability of wild type or mutant AGT to react with alkylated DNA substrates is measured via its labeling efficiency in competition with a fluorescent substrate of AGT. The reaction kinetics of AGT with BG-Cy3 (O^6-benzylguanine coupled to Cy3) is followed by fluorescence intensity measurements at various concentrations of a competing synthetic oligonucleotide containing O^6-benzylguanine (SEQ ID NO:2, modified in position 14).
Reactivity against DNA-based substrates measured with a BG-Cy3 assay: BG-Cy3 is prepared by reacting the previously described O^6-(4-aminomethyl-benzyl)guanine (Keppler et al., NatureBiotechnol. 21:86-89, 2003) with the commercially available N-hydroxysuccinimide ester of Cy3, (Cy3-NHS, Amersham). The coupling reaction is performed at ambient temperature in N,N-dimethylformamide in the presence of 1 eq. of triethylamine. The BG-Cy3 conjugate is purified by reversed-phase HPLC on a C18-column by using linear gradients from 0.1% trifluoroacetic acid to acetonitrile. After solvent evaporation BG-Cy3 is dissolved in dimethyl sulfoxide and stored at −20° C. For measuring the reactivity with DNA-based substrates, a reaction mixture containing different concentrations (0 to 5 µM) of oligonucleotide SEQ ID NO:2 (modified in position 14), GST-AGT fusion protein at 0.2 µM and BG-Cy3 at […] in reaction buffer (50 mM HEPES, pH 7.2, 1 mM DTT, 200 mg/ml BSA) is incubated in microtiterplates. Fluorescence of the Cy3 derivative (excitation 519 nm, emission at 572 nm) is measured on a Spectramax Gemini plate reader (Molecular Devices).

[5] = tested on: CHO cells; assay: Selective labelling in cells after CPTG pre-incubation; type: cell-based; details: 5 µM CPTG 10 min, then 5 µM fluorescent substance 4 20 min
Excerpt: In a further experiment, the mutant AGTM as described in Example 6 is amplified with the primers SEQ ID NO:34 and SEQ ID NO:36 and cloned between the NheI and BgIII sites of the vector pEGFP-Nuc. The […]-galactosidase gene is amplified with the primers SEQ ID NO:37 and SEQ ID NO:38 and subcloned into this vector via BgIII/BamHI to result in a vector with an AGTM-[…]-Gal fusion gene. The hAGT gene is amplified by the principle described under Example 1 with the primers SEQ ID NO:39, SEQ ID NO:40, SEQ ID NO:34, and SEQ ID NO:35 and cloned via NheI/BgIII into pEGFP-Nuc to result in an AGT-NLS3 fusion gene coding for the mutation Gly160Trp. After transient expression of both AGT mutants in parallel, the cells are incubated with 5 µM CPTG for 10 min and subsequently with 5 µM of substance 4 of Juillerat et al., Chem Biol 10:313-317, 2003, for 20 min. The cells are washed and imaged as described under Example 1.

[6] = Stability after reaction with BG-FL; type: physicochemical; details: over 7 days
Procedure: Stability before reaction is determined for the mutant AGT or for a mutant AGT fusion protein by incubating purified samples in buffered aqueous solution for up to two weeks at 4° C. and up to six months at −20° C. At several time points, aliquots are taken and concentration of reactive AGT is estimated as described by Juillerat et al., Chem Biol 10:313-317, 2003. Stability for wild type AGT and the AGT mutant after reaction with a labelled substrate and after subsequent separation from unreacted substrate is determined by quantifying the concentration of the label in the soluble fraction over up to two weeks at 4° C. and up to three months at −20° C.
Stability after reaction: The vector pBAD/H is A (Invitrogen) is modified by cloning synthetic oligonucleotides (SEQ ID NO:29 and SEQ ID NO:30) between the NcoI and HindIII sites to include a 12×His-tag and SbfI and AscI cloning sites. The gene of AGTM is amplified with primers SEQ ID NO:31 and SEQ ID NO:32 and cloned between the SbfI/AscI sites into this vector. Wild type AGT and mutant AGT (Lys125Ala, Ala127Thr, Arg128Ala, Asn157Gly, Ser159Glu) are amplified with primers SEQ ID NO:31 and SEQ ID NO:33 and cloned into this vector. Protein expression is carried out in E. coli strain Top 10. An exponentially growing culture is induced with 0.2% arabinose, and the expression is carried out for 16 hours at 28° C. The cells are lysed by adding buffer to 10 ml/g containing 0.5 M NaCl, 80 mM imidazole, 1% Triton, 250 µM PMSF, 1 mM […]-mercaptoethanol, 5 mg/ml lysozyme, 20 µg/ml DNase and stirring for 45 min. […]
The AGT proteins at 10 µM) are quantitatively reacted with fluorescein-modified O^6-benzyl-guanine (substance 5 of Juillerat et al, Chem Biol 10:313-317, 2003, BG-FL, 20 µM) and purified over a size exclusion column (Econopac 10 DG, Bio-Rad) and incubated for 7 days. […] The fluorescence of the supernatant is measured with a Victor2 fluorescence plate reader (Perkin Elmer, excitation/emission at 485/535 nm).

[7] = tested on: DNA; assay: DNA binding in vitro (co-purified DNA, UV spectroscopy); set-up: species or system E. coli; details: co-purified DNA; compared to wild type hAGT or PGEG-hAGT
Procedure: as §1
For comparing the DNA binding properties of the protein in vitro, the harvested cells are resuspended, and the GST fusion protein is purified following the same method but in a buffer containing 50 mM phosphate, 0.1 M NaCl, 1 mM DTT. In the dialysed samples, the amount of subsequently co-purified DNA is estimated by UV spectroscopy. Spectra are recorded using a Perkin Elmer Lambda 10. The content of DNA corresponds to the ratio of the extinctions at 280 and 260 nm. […]

[8] = Activity assay with biotinylated O^6-benzylguanine (BG-Bt), Western blotting; type: biochemical; details: statement in words
Summary of the method: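 Purified mutant GST-AGT (0.2 μM) reacted with 1 μM biotinylated O^6-benzylguanine in 50 mM HEPES pH 7.2, 1 mM DTT at room temperature. Time-point aliquots quenched with O^6-benzylguanine in SDS buffer. Biotinylated protein detected by Western blot with neutravidin-peroxidase, band intensity quantified.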

Row | Molecule | activity against benzylguanine derivatives (factor) [1] | extent of reaction with N^9-modified BG derivatives [2] | reduction of reaction rate to BG-Cy3 in presence of DNA [3] [fold] | activity in presence of BG-modified oligonucleotide [4] | reaction with CPTG inside cells [5] | loss of soluble fluorescent protein [6] | DNA binding [7] | activity towards O^6-benzylguanine substrates [8]
1 | PGEG-hAGT: an AGT containing the mutations Asn157Gly, Ser159Glu (Juillerat et al., Chem Biol 10:313-317, 2003) (protein, UniProt P16455 1-207, looked up, variant N157G S159E) Methylated-DNA--protein-cystei …: MDKDCEMKRTTLDSPLGKLELSGCEQGLHEIKLLGKGTSAADAVEVPAPAAVLGGPEPLMQCTAWLNAYFHQPEAIEEFPVPALHHPVFQQESFTRQVLWKLLKVVKFGEVISYQQLAALAGNPKAARAVGGAMRGNPVPILIPCHRVVCSSGAVGGYEGGLAVKEWLLAHEGHRLGKPGLGGSSGLAGAWLKGAGATSGSPPAGRN | approximately 20 | reacts efficiently | 5 | less than 3% | – | – | – | –
2 | AGT (Gly160Trp): Human AGT mutant Gly160Trp (Xu-Welliver et al.); expressed as AGT-NLS3 fusion (protein, UniProt P16455 1-207, looked up, variant G160W, NLS3 fusion) Methylated-DNA--protein-cystei …: MDKDCEMKRTTLDSPLGKLELSGCEQGLHEIKLLGKGTSAADAVEVPAPAAVLGGPEPLMQCTAWLNAYFHQPEAIEEFPVPALHHPVFQQESFTRQVLWKLLKVVKFGEVISYQQLAALAGNPKAARAVGGAMRGNPVPILIPCHRVVCSSGAVGNYSWGLAVKEWLLAHEGHRLGKPGLGGSSGLAGAWLKGAGATSGSPPAGRN | somewhat more reactive | – | – | – | efficiently reacts with CPTG inside cells | – | – | –
3 | Lys125Ala, Ala127Thr, Arg128Ala, Asn157Gly, Ser159Glu: hAGT mutant with the listed mutations, expressed as GST fusion (protein, UniProt P16455 1-207, looked up, variant K125A A127T R128A N157G S159E, GST fusion) Methylated-DNA--protein-cystei …: MDKDCEMKRTTLDSPLGKLELSGCEQGLHEIKLLGKGTSAADAVEVPAPAAVLGGPEPLMQCTAWLNAYFHQPEAIEEFPVPALHHPVFQQESFTRQVLWKLLKVVKFGEVISYQQLAALAGNPAATAAVGGAMRGNPVPILIPCHRVVCSSGAVGGYEGGLAVKEWLLAHEGHRLGKPGLGGSSGLAGAWLKGAGATSGSPPAGRN | – | – | – | – | – | about 60% | at least ten times reduced DNA binding | retains activity
